# Source: PMC4869717 (ACS chemical biology, 2015)
# Where a chain is given by its changes, count along the chain named. Names may count otherwise.
# B1: emerin fragment from amino acid 1 to amino acid 187 (EmN), wild type, His-tagged (domain or fragment, human, UniProt P50402 1-187, looked up)
# chain: MDNYADLSDTELTTLLRRYNIPHGPVVGSTRRLYEKKIFEYETQRRRLSPPSSSAASSYSFSDLNSTRGDADMYDLPKKEDALLYQSKGYNDDYYEESYFTTRTYGEPESAGPSRAVRQSVTSFPDADAFHHQVHDDDLLSSSEEECKDRERPMYGRDSAYQSITHYRPVSASRSSLDLSYYPTSSS
# B2: EmN variant Q133H (domain or fragment, human, UniProt P50402 1-187, looked up)
# chain: B1 chain with Q133H
# B3: EmN variant P183H (domain or fragment, human, UniProt P50402 1-187, looked up)
# chain: B1 chain with P183H
# B4: EmN variant S54F (domain or fragment, human, UniProt P50402 1-187, looked up)
# chain: B1 chain with S54F
# B5: emerin fragment from amino acid 1 to amino acid 187 (EmN), wild type, His-tag cleaved (domain or fragment, human, UniProt P50402 1-187, looked up)
# chain: B1 chain
# B6: EmN variant P183T (domain or fragment, human, UniProt P50402 1-187, looked up)
# chain: B1 chain with P183T
# Assays:
# [1] = molecular target: the molecule itself; test: AUC
# [2] = molecular target: the molecule itself; test: thioflavin T fluorescence
Protein,binding result [2],other results
B1,–,stoichiometry N [1]: 2
B2,binds,–
B3,binds,–
B4,binds,–
B5,–,fold increase in ThT fluorescence intensity at 480 nm [2]: 10 fold
B6,binds,–
